Consider one substance from paper PMC10998906.

Experiment [1] has as its target HA GCN4 (NL03 HA fused to a GCN4 trimerization domain) (influenza A virus A/Netherlands/213/2003(H3N2)). The experiment can be described thus: negative-stain EM.
Experiment [2] shares this target. The experiment can be described thus: SEC. In general terms: SEC sorts molecules by how far they enter the pores of the column.

As to “HA GCN4 (NL03 HA fused to a GCN4 trimerization domain) (domain or fragment)”, the stoichiometry N in experiment [1] and in experiment [2] was 3 throughout.

The term stoichiometry N denotes the number of molecules, sites or subunits per partner or assembly.
